According to patent US20220153832A1 (PIONYR IMMUNOTHERAPEUTICS, published 2022):
Read-outs that look alike come from different tables or passages of the source.

T1: human MARCO (R&D biosystems), recombinant, coated in the LDL competition assay (human, UniProt Q9UEW3 70-520, limits assumed)
T1 construct: Bought protein
T1 sequence (looked up): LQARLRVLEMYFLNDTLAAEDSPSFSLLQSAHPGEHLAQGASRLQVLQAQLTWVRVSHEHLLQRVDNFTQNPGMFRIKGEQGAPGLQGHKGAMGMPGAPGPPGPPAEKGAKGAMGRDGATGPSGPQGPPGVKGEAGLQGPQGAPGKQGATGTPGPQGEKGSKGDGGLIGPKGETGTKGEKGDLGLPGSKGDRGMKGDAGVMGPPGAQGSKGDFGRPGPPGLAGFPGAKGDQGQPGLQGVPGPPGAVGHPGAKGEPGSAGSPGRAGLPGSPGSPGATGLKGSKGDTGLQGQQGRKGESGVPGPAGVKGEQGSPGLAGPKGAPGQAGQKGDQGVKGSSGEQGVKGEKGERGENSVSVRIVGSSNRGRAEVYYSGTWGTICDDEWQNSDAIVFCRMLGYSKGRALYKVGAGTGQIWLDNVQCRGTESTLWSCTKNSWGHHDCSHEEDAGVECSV

T2: human MSR1 (R&D Systems) (human, UniProt P21757 77-451, limits assumed)
T2 construct: Related scavenger receptor used as specificity control; also called MSRI
T2 sequence (looked up): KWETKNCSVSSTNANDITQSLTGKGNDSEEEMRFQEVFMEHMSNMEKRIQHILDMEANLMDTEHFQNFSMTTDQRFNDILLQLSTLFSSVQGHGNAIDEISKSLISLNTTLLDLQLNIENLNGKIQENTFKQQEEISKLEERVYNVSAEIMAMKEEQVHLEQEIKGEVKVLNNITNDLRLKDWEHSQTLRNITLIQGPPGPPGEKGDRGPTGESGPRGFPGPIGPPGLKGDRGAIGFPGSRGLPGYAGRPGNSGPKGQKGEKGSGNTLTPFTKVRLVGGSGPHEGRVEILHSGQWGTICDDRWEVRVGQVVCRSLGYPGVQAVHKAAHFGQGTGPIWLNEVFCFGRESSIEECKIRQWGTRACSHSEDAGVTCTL


What was measured:
[1] = target: T1, human MARCO (R&D biosystems), …; assay: LDL competition on coated human MARCO (MSD), competitor biotinylated hLDL
Protocol: (§1) A high-binding, 96-well MSD plate was coated with 4 μg/ml mouse MARCO or 4 μg/ml human MARCO (R&D biosystems). After the plate was blocked with PBST and 5% BSA for an hour, titrated anti-mouse or anti-human MARCO antibodies were added to the plate and incubated for 30 minutes. Biotinylated hLDL (860 pM or 2 μg/ml) were added to the antibody, and the antibody/LDL mixture was incubated for an hour to allow the mixture to reach binding equilibrium. The plates were washed and bound biotinylated LDL was detected with Sulfo-tagged streptavidin that generates an electrocheminlumenscent signal when read buffer is added and electricity is applied to the electrodes in the MSD plate. IC50's were calculated using a 4-parameter curve fit in GraphPad Prism software.
The newly generated rat hybridoma anti-human MARCO antibodies were characterized as previously described. Neither antibody bound to MSR1. Binding kinetics were determined via Multi Cycle Kinetics analysis using the huMARCO antigen as previously described.

human MSR1 (R&D Systems) = target: T2, human MSR1 (R&D Systems); assay: ELISA on MSR1
Method in brief: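 Cross-reactivity with human MSR1 (R&D Systems) was tested by ELISA. Maxisorp plates were coated overnight with 0.1 ug/well protein in DPBS with Ca2+ and Mg2+, then blocked with PBS/Ca2+/2% FBS. Hybridoma supernatants were added 1:1 in that buffer for 1 hour at room temperature. Detection used HRP-conjugated anti-rat IgG for 1 hr, then TMB and A450.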

[2] = target: T1, human MARCO (R&D biosystems), …; assay: LDL competition on coated human MARCO (MSD), competitor biotinylated hLDL; remark: listed apart in the source
Protocol: as §1

EC50 [1] [nM]	binding result (human MSR1 (R&D Systems))	EC50 [2] [nM]	Binder
8.2	no binding	8.2	PI-HX-3061 (antibody, rat IgG2a, Parental rat hybridoma, rat IgG2a; cross reactive with human and mouse MARCO) heavy: EVQLVESGGGLVQPGSSLKLSCVASKFTFSNYGMNWIRQAPKKGLEWIALIYYNSNNKYYADSVKGRFTISRDNSKNTLYLEMNSLRSEDTAMYYCAKSLTGGSDYFDSWGQGVMVTVSSAETTAPSVYPLAPGTALKSNSMVTLGCLVKGYFPEPVTVTWNSGALSSGVHTFPAVLQSGLYTLTSSVTVPSSTWPSQTVTCNVAHPASSTKVDKKIVPRNCGGDCKPCICTGSEVSSVFIFPPKPKDVLTITLTPKVTCVVVDISQDDPEVHFSWFVDDVEVHTAQTRPPEEQFNSTFRSVSELPILHQDWLNGRTFRCKVTSAAFPSPIEKTISKPEGRTQVPHVYTMSPTKEEMTQNEVSITCMVKGFYPPDIYVEWQMNGQPQENYKNTPPTMDTDGSYFLYSKLNVKKEKWQQGNTFTCSVLHEGLHNHHTEKSLSHSP light: DVQMTQSPSYLAASPGESVSISCKASKSIGTFLAWYQEKPEKTNKLLIYSGSTLQSGTPSRFSGSGSGTDFTLTIRNLEPEDFAVYYCQQHDEYPFTFGSGTKLEIKRADAAPTVSIFPPSTEQLATGGASVVCLMNNFYPRDISVKWKIDGTERRDGVLDSVTDQDSKDSTYSMSSTLSLTKADYESHNLYTCEVVHKTSSSPVVKSFNRNEC
6.2	no binding		PI-HX-3031 (antibody, Parental rat hybridoma, rat IgG2a) heavy: QVQLKESGPGLVQPSQTLSLTCTVSGFSLTSYHVSWVRQPPGKGLEWMGAIWTGGSIAYNSLLKSRLSISRDTSKSQVFLKMNSLQTEDTATYYCARDLSDYYSSYTSFDYWGQGVMVTVSTAETTAPSVYPLAPGTALKSNSMVTLGCLVKGYFPEPVTVTWNSGALSSGVHTFPAVLQSGLYTLTSSVTVPSSTWSSQAVTCNVAHPASSTKVDKKIVPRECNPCGCTGSEVSSVFIFPPKTKDVLTITLTPKVTCVVVDISQNDPEVRFSWFIDDVEVHTAQTHAPEKQSNSTLRSVSELPIVHRDWLNGKTFKCKVNSGAFPAPIEKSISKPEGTPRGPQVYTMAPPKEEMTQSQVSITCMVKGFYPPDIYTEWKMNGQPQENYKNTPPTMDTDGSYFLYSKLNVKKETWQQGNTFTCSVLHEGLHNHHTEKSLSHSP light: DIQMTQSPASLSTSLGETVSIECLASEGISNDLAWYQQKSGKSPQLLIYAASRLQDGVPSRFSGSGSGTRYSLKISGMQPEDEADYFCQQSYKYPLTFGSGTKLEIKRADAAPTVSIFPPSTEQLATGGASVVCLMNNFYPRDISVKWKIDGTERRDGVLDSVTDQDSKDSTYSMSSTLSLTKADYESHNLYTCEVVHKTSSSPVVKSFNRNEC
		3.4	PI-HX-3043 (antibody, rat IgG2a, Parental rat hybridoma, rat IgG2a) heavy: QVNLLQSRAALVKPGASVKLSCKASGYTFTDYYLHWVKQSHAKSLEWIGYINPNNAYTSYNEKFKSKATLTVDKSTNTAYMELSRLTSADSATYYCARDTTDYYNLHFAYWGQGTLVTVSSAETTAPSVYPLAPGTALKSNSMVTLGCLVKGYFPEPVTVTWNSGALSSGVHTFPAVLQSGLYTLTSSVTVPSSTWSSQAVTCNVAHPASSTKVDKKIVPRECNPCGCTGSEVSSVFIFPPKTKDVLTITLTPKVTCVVVDISQNDPEVRFSWFIDDVEVHTAQTHAPEKQSNSTLRSVSELPIVHRDWLNGKTFKCKVNSGAFPAPIEKSISKPEGTPRGPQVYTMAPPKEEMTQSQVSITCMVKGFYPPDIYTEWKMNGQPQENYKNTPPTMDTDGSYFLYSKLNVKKETWQQGNTFTCSVLHEGLHNHHTEKSLSHSP light: DIQMTQSPASLSASLGETVSIECLTSEGISNDLAWYQQKSGKSPQLLIYDASRLEDGVPSRFSGSGSGTRYSLKISGMQTEDEADYFCQQSYKYPLTFGSGTKLEIKRADAAPTVSIFPPSTEQLATGGASVVCLMNNFYPRDISVKWKIDGTERRDGVLDSVTDQDSKDSTYSMSSTLSLTKADYESHNLYTCEVVHKTSSSPVVKSFNRNEC
